{
  "source": "the nanobody polyreactivity screen of Harvey et al. (2022)",
  "data": [
    {"assay": "yeast display, Sf9 membrane polyspecificity reagent, FACS + sequencing; frameworks hold sequencing errors", "procedure,_shortened": "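Synthetic nanobody libraries on Saccharomyces cerevisiae BJ5465 were galactose-induced for 36–48 hours, stained 1 hour at 4 °C with 10% biotinylated, detergent-solubilized Sf9 membrane reagent and enriched on streptavidin microbeads. FACS then separated cells into low and high (top ~1%) gates by anti-HA (expression) and streptavidin (reagent binding) fluorescence. Genes were colony-PCR amplified, MiSeq 2 × 250 sequenced and CDR-length filtered. A clone's polyreactivity label is that of its gate of origin.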", "values": [
      {"sequence": "QVQLVESGGGLVQAGGILRLSCAASGITFVRNAMGWYRQAPGKDREFVAAINSIVGRTYYADSVKGRFTISRDNAKNTVYLQMNSLKPEDTAVYDCAADSNVRYGMDYWGLGTQVTVSS", "polyreactivity (PSR sort gate)": "low polyreactivity"},
      {"sequence": "QVQLVESGGGLVQAGGSLRISCAASGFTFRYYAMGWYRQAPGKERELVATISTGSGVSTYYADSVKGRFTISRDNAKNTVYLQMNSLKPEDTAVYYCAADYDSYYAYRTPYGYWGQGTQVTVSS", "polyreactivity (PSR sort gate)": "low polyreactivity"},
      {"sequence": "QVQLVESGGGLVQAGGSLRLSCAASGITFYIYAMGWSRQAPGKEREFVASITWRGGSTYYADSVKGRFTISRDNAKNTVYLQMNSLKPEDTAVYYCNAEYSSSRYWYYDYWGQGTQVTVSS", "polyreactivity (PSR sort gate)": "high polyreactivity"},
      {"sequence": "QVQLVESGGGLVQAGGSLRLSCAASGRTFTKNAMGWYRQAPGKERELVAAISISGGSTYYADSVKGRFTISRDNAKNTVYLQMYSLKPEDTAVYYCAADVVTYLSYTLDYWGQGTQVTVSS", "polyreactivity (PSR sort gate)": "low polyreactivity"},
      {"sequence": "QVQLVESGGGLVQAGGSLRLSCAASGSTFSGYAMGWYRQAPGKERELVAAISRRGTSTYYADSVKGRFTISRDNAKNTVYLQMNSLKPEDTAVYYCAARPSGYVIGGYGYWGQGTQVTVSS", "polyreactivity (PSR sort gate)": "high polyreactivity"},
      {"sequence": "QVQLVESGAGLVQAGGSLRLSCAASGSTVAGNAMGGYRQAPGTERELVAAIDSSTGSTYYADCVKGRFTISRDNAKITVYLLMNSLKPEDTAVYYCADDQVHKREYDYWGQGTQVTVSS", "polyreactivity (PSR sort gate)": "low polyreactivity"},
      {"sequence": "QVQLVESGGGLVQAGGSLRLICAASGIIFFDYAMGWYRQAPGKEREMVAAISSGGGNTYYADSVKGRFTISRDNAKNTVYLQMNSLKPEDTAVYYCAAEPYIYGEQGAYDYWGQGTQVTVSS", "polyreactivity (PSR sort gate)": "low polyreactivity"},
      {"sequence": "QVQLVESGGGLVQAGGSLRLSCAASGRIFAEYAMGWYIQATGKERELVASISRRGGSTYYADSVKGRFTISRDNAKNTVYLQMNSLKPEDTAVYYCAAVWAYYHTRYSTWGYDYWGQGTQVTVSS", "polyreactivity (PSR sort gate)": "high polyreactivity"},
      {"sequence": "QVQLVESGGGLVQAGGSLRLSCAASGSTFIYYAMGWYRQAPGKERELVAGISIRGGSTYADSVKGRFTISRDNAKNTVYLQMNSVKPEDTAVYYCNAYKRIKANGYAIRYYYWGQGTQVTVSS", "polyreactivity (PSR sort gate)": "high polyreactivity"},
      {"sequence": "QVQLVESGGGLVQAGGSLRLSCAASGRTFFVNAMGWYRQAPGKERELVATITFSGDSTYYADSVKGRFSISRDNAKNTVYLQMNSLKPEDTAVYYCAAYQGQKGYDYWGQGTQVTVSS", "polyreactivity (PSR sort gate)": "high polyreactivity"},
      {"sequence": "QVQLVESGGGLVQAGGSLRLSCAASGIIFDDYAMGWYRQAPGKERELVAAISRGGSTYYADSVKGRFTISRDNAKNTVYIQMNSLKPEDTAVYYCAAVVYTIYARYGYCGQGTQVTVSS", "polyreactivity (PSR sort gate)": "high polyreactivity"},
      {"sequence": "QLQLEESGGGLVQAGGSLRLSCAASGSIFDDYAMGWYRQAPGKERELVAAITSGGSTYYADSVKGRFTISRDNAKNTVYLQLNRLKPEDTAVYYRATRYHWSSSFAPVGAYGYWGQGTQVTVSS", "polyreactivity (PSR sort gate)": "low polyreactivity"},
      {"sequence": "QVQLVESGGGLLQAGGSLRLSCAASGNIFGWYAMGWYRQAPGKERELVAAISSGGRTNYADSVKGRFTISRDNAKNTVYLQMNSLKPEDTAVYYCATPLQQLYGYWGQGTQVSVSS", "polyreactivity (PSR sort gate)": "low polyreactivity"},
      {"sequence": "QVQLVESGGGLVQAGGSLRLICAASGVSNAKGWYRQAPGKERELVAAISRSGGSTYYADSVKGRFTISRDNAKNTVYIQMNSLKPEDTAVYYCAAGYRTRGLYSRLDWGQGTQVTVSS", "polyreactivity (PSR sort gate)": "high polyreactivity"},
      {"sequence": "QVQLVESGGGLVQAGGSLRVSCAASGSTFVGNAMGWYRQEPGKERELVADITSGGSTNYADSVKGRFTISRDNAKNTVYLQMKSLKPEDTAVYYFAAVYLCSQRREFWGQGTQVTVSS", "polyreactivity (PSR sort gate)": "low polyreactivity"},
      {"sequence": "QVQLVESGGGLVKAGGSLRLSCAASGFICVDYDRGGSRQAPGQERELVAAINWSGGSTDYADSVKGRFTISRDNAKNTVYLQMNSLKPEDTAVYYCGAEGQDCRFYWGLGTQVTVSS", "polyreactivity (PSR sort gate)": "low polyreactivity"},
      {"sequence": "QVQLVESGGGLVQAGGSLRLSCAASGRIFLTNAMGWYRQAPGKERELVADITSGGATYYADSVKGRFTISRDNAKNSVYLQMNSLKPVDTAVYYCNADTDRYWPYEYDYWGQGSQVTVSS", "polyreactivity (PSR sort gate)": "low polyreactivity"},
      {"sequence": "QVQLVESGGGLVQAGGSLRLSCAASGLILYWYAMGWYRQAPGKERELVAAISISGGSTYYADSVKGRFTISRDNAKNTVYLQMNSLKPEDTAVYYCAAVYFYSWEGDGDYWGQGTQVTVSS", "polyreactivity (PSR sort gate)": "low polyreactivity"},
      {"sequence": "QVQLVESGGGLVQAGGRLRLRCAASGSTFGYYAMGWYRQAPGKERELVAAISRSGGITYYADSVKGRFTISRDNAKNTVYLQMNSLKPEDTAVYYCAADRNRYTGEDDSWGEGTQVTVSS", "polyreactivity (PSR sort gate)": "low polyreactivity"},
      {"sequence": "QVQLVESGGGLVQAGGSLRLSCAASGIIFGRYAMGWYRQAPGKERELVATISRSGGTTYYADSVKGRFTISRDNAKNTVYLQMNSLKPEDTAVYYCAARWTSRYDYWGQGTQVTVSS", "polyreactivity (PSR sort gate)": "high polyreactivity"},
      {"sequence": "QVQLVESVGGLVQAGGSLRLSCAASGFIFWDNAMGWYRQAPGKERELVAAISKSGTRTYYADSVKGRFTISRDNAKNTVYLQMNSLKPEDTAVYSCAAEGSGYEYYYWGQGTQVTVSS", "polyreactivity (PSR sort gate)": "high polyreactivity"},
      {"sequence": "QVQLVESGGGLVQAGGSLRLSCAASGRIFGRYAMGWYRQAPGKERELVASITRRGGSTYYADSVKGRFTISRDNAKNTVYLQMNSLKPEDTAVYYCAAGGFSWEGDSWGQGTQVTVSS", "polyreactivity (PSR sort gate)": "high polyreactivity"},
      {"sequence": "QVQLVDSGGGLVQAGGSLRLSCAASGFIFAHYAMGWYRPAPGKESELVAAISSRGGSTYYADSVKGRFTISRDNAKNTVYLQMNSLKPEDTAVYYCAKARHRPARGYEYWGQGTQVTVSS", "polyreactivity (PSR sort gate)": "high polyreactivity"},
      {"sequence": "QVQLVESGGGLVQAGGSLRLSCAASGFTFYDKAMGWNRQAPGKERELVAAINCRSGSTYYADSVKGRFTISRDTAKNTVYLQMNSLKPEDTAVYYCASGLVFHYYAPKSYYLRYDYWGQGTQVTVSS", "polyreactivity (PSR sort gate)": "low polyreactivity"},
      {"sequence": "QVQLVESGGGLVQAGGILSLSCADSGRIFDIYAMGWYRQAPGKERELVASISWSGDSTYYADSVKGRFTISRDNAKNTVYLQMNSLKPEDTAVYYCDAVGEDTEGYDFDYWGQGTQVTVSS", "polyreactivity (PSR sort gate)": "low polyreactivity"},
      {"sequence": "QVQLVESGGGLVQAVGSLRLSCAASGRTFQSYTMGWYRQAPGKEREFVAAFRDSGGSTYYADSVKGRFTISRDNAKNTVFLQMNSLKPEDTAVYYCAAYRPRKYDYWGQGTQVTVSS", "polyreactivity (PSR sort gate)": "high polyreactivity"},
      {"sequence": "QVQLVESGGGLVQAGGSLRLSCAASGSIFWGYAMGWYRQAPGKERELVATIPNRGGSTYYADSVKARFTISRDNAKNTVYLQMNSLKPEDTAVYYCAVERDYWTKASYYWGRGTQVTVSS", "polyreactivity (PSR sort gate)": "low polyreactivity"},
      {"sequence": "QVQLVESVGGLVQAGGSLRLSCAASGSIFIANAIGWYRQAPGKERELVAAISWSGGRTYYADSVKGRFTISRDNAKNTVYLQMNSLKPEDTAVYYCAAVYGAYDSGRFLSFGNFDYWGQGTQVTVSS", "polyreactivity (PSR sort gate)": "high polyreactivity"},
      {"sequence": "QVQLVESGGGLVQAGGSLRLSCAASGRSFTPYARGWYRQAPGKERELVAAISTIGGTTYADSVKGRFTISRDNAKNTVYLQRNSLKPEDTAVYYCAAERPPYPGNGRDYWGQGTQVTVSS", "polyreactivity (PSR sort gate)": "high polyreactivity"},
      {"sequence": "QVQVVDSGGGLVQAGGSLRLSCAASGSIFYVYAMGWYRQAPGKVWEFVAAIRWFSGSTYYADSVKWRYTISRDNAKNTVYLQMNSLKPEDTAVYYCAARKYKQGRFKYDYWGQGTQVTVSS", "polyreactivity (PSR sort gate)": "high polyreactivity"},
      {"sequence": "QLQLVESGGGLVQAGGSLRLSCAASGLTFQYYAMGWYRQAPGKERELVAAISTSGGSTYYADSVKGRFTISRDNAKNTVYLQMNSLKPEDTAVYYCAARGPGYPRIWRKYGYWGQGTQVTVSS", "polyreactivity (PSR sort gate)": "high polyreactivity"},
      {"sequence": "QVQLVESGGGLVQAGGSLRLSCAASGFTFSSNAMGWYRQAPGKERELVAAIRGSDGNTYYADSVKGRFTISRDNAKNTVYLQMNSLKPEDTAVYYCNARSYGYRTSRARYNYWGQGTQVTVSS", "polyreactivity (PSR sort gate)": "high polyreactivity"}
    ]}
  ]
}
